Test [1] deals with Cry1Ca receptor protein(s) / binding site on Brush Border Membrane Vesicles (BBMV's) from Spodoptera frugiperda (Spodoptera frugiperda). Kind of test: homologous competition; displacement of 0.5 nM 125I-labeled Cry1Ca core toxin from S. frugiperda BBMV (150 ug/mL).
Test [2] shares this target. The test can be described thus: heterologous competition; displacement of 0.5 nM 125I-labeled Cry1Ca core toxin from S. frugiperda BBMV (150 ug/mL).

Some results are limits rather than exact numbers.

“Cry1Ca core toxin protein (non-radiolabeled, trypsin-activated) (from UniProt P0A376 28-618) (ligand)”: in test [1], the IC50 (as a rule, the concentration needed to halve the response being measured) turned out to be 5 nM. In turn, “Cry1Fa core toxin protein (non-labeled, trypsin-activated) (from UniProt Q03746 28-605) (ligand)” came in with a half-inhibitory concentration (IC50) in test [2] above 300 nM.

Source of the values: patent US20120317681A1.
